Assay results from patent publication US11332512B2, “Peptides and combination of peptides for use in immunotherapy against various tumors” (Immatics Biotechnologies GmbH, priority 2015, dated 2022).

target: HLA-A*02:01 (Homo sapiens, UniProt P04439, D140Y/D185E/D98H/E176V/E277Q/G131W/G231S/I119V/I121R/I166T/I218V/L300P/L318F/N151K/N90K/P208A/P217A/Q86G/Q94H/R138H/R169H/T345S); test: MHC binding assay: UV-ligand exchange with beta2m ELISA (peptide exchange yield); details: binding to HLA-A*02:01, β2m ELISA
From the text: Candidate peptides for T cell based therapies according to the present invention were further tested for their MHC binding capacity (affinity). The individual peptide-MHC complexes were produced by UV-ligand exchange, where a UV-sensitive peptide is cleaved upon UV-irradiation, and exchanged with the peptide of interest as analyzed. Only peptide candidates that can effectively bind and stabilize the peptide-receptive MHC molecules prevent dissociation of the MHC complexes. To determine the yield of the exchange reaction, an ELISA was performed based on the detection of the light chain (β2m) of stabilized MHC complexes. The assay was performed as generally described in Rodenko et al. (Rodenko et al., 2006).
96 well MAXISorp plates (NUNC) were coated over night with 2 ug/ml streptavidin in PBS at room temperature, washed 4× and blocked for 1 h at 37° C. in 2% BSA containing blocking buffer. Refolded HLA-A*02:01/MLA-001 monomers served as standards, covering the range of 15-500 ng/ml. Peptide-MHC monomers of the UV-exchange reaction were diluted 100 fold in blocking buffer. Samples were incubated for 1 h at 37° C., washed four times, incubated with 2 ug/ml HRP conjugated anti-β2m for 1 h at 37° C., washed again and detected with TMB solution that is stopped with […]. Absorption was measured at 450 nm. Candidate peptides that show a high exchange yield (preferably higher than 50%, most preferred higher than 75%) are generally preferred for a generation and production of antibodies or fragments thereof, and/or T cell receptors or fragments thereof, as they show sufficient avidity to the MHC molecules and prevent dissociation of the MHC complexes.

Peptide exchange (MHC class I binding score, peptide exchange yield), +++ (= ≥50% = +++):
224 (LLFDWSGTGRADA; listed as Homo sapiens) [compound 224]
237 (ALLEQTGDMSL; listed as Homo sapiens) [compound 237]
45 (FLPVSVVYV; listed as Homo sapiens) [compound 45]
256 (FLNDIFERI; listed as Homo sapiens) [compound 256]
231 (LLDDIFIRL; listed as Homo sapiens) [compound 231]
226 (SLAGNLQEL; listed as Homo sapiens) [compound 226]
75 (ALLDGALQL; listed as Homo sapiens) [compound 75]
126 (QLREAFEQL; listed as Homo sapiens) [compound 126]
148 (YLILSSHQL; listed as Homo sapiens) [compound 148]
276 (RMPTVLQCV; listed as Homo sapiens) [compound 276]
13 (RLHDENILL; listed as Homo sapiens) [compound 13]
158 (YLDPLWHQL; listed as Homo sapiens) [compound 158]
162 (GLLGNLLTSL; listed as Homo sapiens) [compound 162]
88 (LLLPLELSLA; listed as Homo sapiens) [compound 88]
195 (VIIQNLPAL; listed as Homo sapiens) [compound 195]
220 (ALSELERVL; listed as Homo sapiens) [compound 220]
143 (MLWESIMRV; listed as Homo sapiens) [compound 143]
250 (LMQDSRLYL; listed as Homo sapiens) [compound 250]
61 (ALYPKEITL; listed as Homo sapiens) [compound 61]
190 (SLSTELFKV; listed as Homo sapiens) [compound 190]
278 (VLEDKVLSV; listed as Homo sapiens) [compound 278]
218 (SLTGANITV; listed as Homo sapiens) [compound 218]
54 (YLVPGLVAA; listed as Homo sapiens) [compound 54]
180 (RLYEEEIRI; listed as Homo sapiens) [compound 180]
36 (TVLQELINV; listed as Homo sapiens) [compound 36]
164 (MLIIRVPSV; listed as Homo sapiens) [compound 164]
159 (QLGPVPVTI; listed as Homo sapiens) [compound 159]
280 (HLWGHALFL; listed as Homo sapiens) [compound 280]
175 (SLLDLVQSL; listed as Homo sapiens) [compound 175]
122 (SIIDTELKV; listed as Homo sapiens) [compound 122]
166 (LLGDSSFFL; listed as Homo sapiens) [compound 166]
228 (SLLELDGINLRL; listed as Homo sapiens) [compound 228]
173 (RLIDIYKNV; listed as Homo sapiens) [compound 173]
111 (AQLEGKLVSI; listed as Homo sapiens) [compound 111]
270 (TLLTFFHEL; listed as Homo sapiens) [compound 270]
63 (KLLPMVIQL; listed as Homo sapiens) [compound 63]
191 (AAIEIFEKV; listed as Homo sapiens) [compound 191]
67 (FLIENLLAA; listed as Homo sapiens) [compound 67]
108 (FIANLPPELKA; listed as Homo sapiens) [compound 108]
59 (ALADGIKSFLL; listed as Homo sapiens) [compound 59]
200 (IMPTFDLTKV; listed as Homo sapiens) [compound 200]
26 (VLDGKVAVV; listed as Homo sapiens) [compound 26]
12 (RLLDPKTIFL; listed as Homo sapiens) [compound 12]
204 (SEWGSPHAAVP; listed as Homo sapiens) [compound 204]
62 (SLVENIHVL; listed as Homo sapiens) [compound 62]
283 (ALSELLQQV; listed as Homo sapiens) [compound 283]
25 (LLWGHPRVALA; listed as Homo sapiens) [compound 25]
47 (GLNGFNVLL; listed as Homo sapiens) [compound 47]
82 (ILAEEPIYIRV; listed as Homo sapiens) [compound 82]
262 (LLLEAVWHL; listed as Homo sapiens) [compound 262]
167 (LVVDEGSLVSV; listed as Homo sapiens) [compound 167]
249 (YLYQILQGI; listed as Homo sapiens) [compound 249]
207 (KLFETVEEL; listed as Homo sapiens) [compound 207]
145 (ALEEKLENV; listed as Homo sapiens) [compound 145]
7 (ALLQALMEL; listed as Homo sapiens) [compound 7]
22 (LMYPYIYHV; listed as Homo sapiens) [compound 22]
169 (ALADLSVAV; listed as Homo sapiens) [compound 169]
177 (ALINVLNAL; listed as Homo sapiens) [compound 177]
16 (SLADLSLLL; listed as Homo sapiens) [compound 16]
239 (VIIKGLEEITV; listed as Homo sapiens) [compound 239]
99 (TLFGIQLTEA; listed as Homo sapiens) [compound 99]
